# Assay results: patent publication US20140356285A1, “COMPOSITIONS AND METHODS RELATED TO TISSUE TARGETING” (THE BOARD OF REGENTS OF THE UNIVERSITY OF TEXAS SYSTEM, priority 2011, published 2014)
# No end group written: not given here. *: point of attachment. Biotin = O=C1N[C@H]2[C@H](CS[C@H]2CCCCC(=O)*)N1
# T1: PR-3 (Homo sapiens, UniProt P24158)
# T1 construct: purchased Sigma
# T1 sequence (P24158 28-248 limits assumed): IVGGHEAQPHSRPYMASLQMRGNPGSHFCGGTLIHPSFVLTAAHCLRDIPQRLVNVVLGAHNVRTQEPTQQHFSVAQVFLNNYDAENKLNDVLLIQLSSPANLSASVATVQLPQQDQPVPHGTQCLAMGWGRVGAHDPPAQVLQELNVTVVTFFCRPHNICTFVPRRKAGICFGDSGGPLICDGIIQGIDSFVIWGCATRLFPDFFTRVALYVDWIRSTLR
# T2: prohibitin (Homo sapiens, UniProt P35232)
# T2 construct: gift from Dr. Srikumar Chellappan (H. Lee Moffitt Cancer Center & Research Institute)
# T2 sequence (P35232 1-272): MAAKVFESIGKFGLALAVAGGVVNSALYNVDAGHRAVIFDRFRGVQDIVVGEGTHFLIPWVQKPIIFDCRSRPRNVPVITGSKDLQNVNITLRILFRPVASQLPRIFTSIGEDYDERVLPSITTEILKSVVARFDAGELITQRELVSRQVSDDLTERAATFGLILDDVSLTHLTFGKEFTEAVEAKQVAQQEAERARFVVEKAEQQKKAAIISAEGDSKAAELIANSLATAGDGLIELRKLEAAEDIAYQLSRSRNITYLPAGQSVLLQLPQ
# T3: ANXAS (Homo sapiens, UniProt P08758)
# T3 construct: purchased AmProx
# T3 sequence (P08758 1-320): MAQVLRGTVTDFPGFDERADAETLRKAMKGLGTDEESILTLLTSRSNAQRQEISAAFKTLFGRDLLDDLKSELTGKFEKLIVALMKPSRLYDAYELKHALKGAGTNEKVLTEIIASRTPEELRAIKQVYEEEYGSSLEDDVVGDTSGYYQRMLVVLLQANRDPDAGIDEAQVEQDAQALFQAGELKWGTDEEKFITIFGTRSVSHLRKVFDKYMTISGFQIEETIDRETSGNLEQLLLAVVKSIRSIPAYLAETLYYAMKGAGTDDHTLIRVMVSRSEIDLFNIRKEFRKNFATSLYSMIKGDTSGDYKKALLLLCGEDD
# T4: His6-ANXA5 (UniProt P08758 1-320, limits assumed)
# T4 construct: also called ANXAS (so in the source); control His6-ANXAS; not shown: His6 tag
# T4 sequence (looked up): T3 sequence (P08758 1-320)
# B1: GST-prohibitin (other, UniProt P35232 1-272, looked up)
# chain: T2 sequence (P35232 1-272)
# notes: Gift from Dr. Srikumar Chellappan; also called recombinant GST-prohibitin; glutathione S-transferase (GST)-conjugated protein; not shown: glutathione S-transferase (GST) tag
# B2: human leukocyte proteinase-3 (PR-3) (enzyme)
# chain: IVGGHEAQPHSRPYMASLQMRGNPGSHFCGGTLIHPSFVLTAPHCLRDIPQRLVNVVLGAHNVRTQEPTQQHFSVAQVFLNNYDAENKLNDILLIQLSSPANLSASVTSVQLPQQDQPVPPHGTQCLAMGWGRVGAHDPPAQVLQELNVTVVTFFCRPHNICTFVPRRKAGICCFGDSGGPLICDGIIQGIDSFVIWGCATRLFPDFFTRVAYDWIRSTLR
# notes: In the ELISAs the PR-3 was bought (Sigma); also called active PR-3; endogenous PR-3
# B3: negative control peptide CARAC (peptide)
# peptide: Biotin-CARAC
# modifications: also: cyclized, type and places not given here
# notes: Negative control on monoavidin beads; also called control elution peptide
# Key:
# PR-3 = target: T1, PR-3; assay: Phage binding competition assay, targeted phage and cognate synthetic peptide; details: FIG. 4E
# Procedure: (§1) Phage Binding Assays. Binding of targeted phage to immobilized candidate receptors was evaluated as described (Kolonin et al., 2006b). Micro-wells of 96-well plates were blocked with phosphate-buffered saline (PBS) containing 3% BSA, washed, and incubated with 10^9 TU of targeted phage. Inhibition of phage binding was performed in the presence of increasing concentrations of synthetic peptides, as indicated. For phage display screening on immobilized prohibitin, 10^9 TU of phage clones recovered from the second round of in vivo selection were incubated ON with 1 μg of immobilized recombinant GST-prohibitin. Bound phage were recovered by infection of host bacteria (E. coli K91 Kan).
# prohibitin = target: T2, prohibitin; assay: Phage binding assay on immobilized prohibitin; details: increasing concentrations of synthetic peptide (FIG. 3B)
# Procedure: as §1
# [1] = tested on: cells of mouse WAT vasculature; details: previous research (Kolonin et al., 2004); cited from earlier work
# ANXA2 = target: T5, ANXA2 (Homo sapiens, UniProt P07355); assay: Capture of GST-prohibitin with immobilized His6-ANXA2; type: binding; details: recombinant GST-conjugated protein (FIG. 3E)
# T5 construct: purchased AmProx
# Procedure: (§2) Protein Binding Assays. Titration of anti-peptide antibodies was performed on Maxisorb Immunoplates (Nunc) coated with 1 μg/mL of peptides or proteins. Incubation with primary antibodies was followed by signal detection with goat anti-rabbit HRP-conjugated IgG (Sigma-Aldrich; St. Louis, Mo.) and 3, 3′,5,5′-tetramethylbenzidine (TMB) (Calbiochem). To evaluate protein-protein interactions, the inventors performed ELISA on 96-well plates coated with 1 μg/mL of recombinant candidate receptors, as indicated. Blocking of exposed non-specific binding sites was performed with PBS containing either 2% gelatin or 1% BSA, as indicated. Ligand candidates were added to the wells at different concentrations, as indicated. Specific binding was detected by incubation with appropriate primary and secondary antibodies. For capture experiments, immobilized His6-ANXA2 and ANXAS were incubated with recombinant GST-prohibitin. Protein interaction, assessed by immunoblotting with anti-GST antibody, was detected with anti-rabbit or anti-goat secondary alkaline phosphatase-conjugated polyclonal antibodies.
# ANXAS = target: T3, ANXAS; assay: Capture of GST-prohibitin with immobilized control His6-ANXAS; type: binding; details: recombinant GST-conjugated protein (FIG. 3E)
# Procedure: as §2
# His6-ANXA5 = target: T4, His6-ANXA5; assay: capture of GST-prohibitin on immobilized His6-annexin, immunoblot with anti-GST antibody
# BMPRIA-Fc = target: T6, BMPRIA-Fc (UniProt P36894 24-152); assay: ELISA on immobilized PR-3
# T6 construct: Bought (R&D Systems); control protein; also called Fc-BMPRIA; not shown: Fc tag
# BSA = target: T7, BSA (bovine, UniProt P02769 25-607); assay: ELISA on immobilized PR-3
# T7 construct: Control protein added to immobilized PR-3; also called bovine serum albumin; control protein
# [2] = target: B2; assay: affinity capture on monoavidin beads loaded with biotinylated peptide, from a membrane extract of human bone marrow cells; SDS-PAGE
# Description: (B) Liquid chromatography-mass spectrometry (LC-MS/MS) of peptides matching the candidate receptor PR-3. Peptides identified are underlined. […] Arrow: ˜35 kDa band specific to the RAGE-like peptides.
# T5 sequence (P07355 whole entry): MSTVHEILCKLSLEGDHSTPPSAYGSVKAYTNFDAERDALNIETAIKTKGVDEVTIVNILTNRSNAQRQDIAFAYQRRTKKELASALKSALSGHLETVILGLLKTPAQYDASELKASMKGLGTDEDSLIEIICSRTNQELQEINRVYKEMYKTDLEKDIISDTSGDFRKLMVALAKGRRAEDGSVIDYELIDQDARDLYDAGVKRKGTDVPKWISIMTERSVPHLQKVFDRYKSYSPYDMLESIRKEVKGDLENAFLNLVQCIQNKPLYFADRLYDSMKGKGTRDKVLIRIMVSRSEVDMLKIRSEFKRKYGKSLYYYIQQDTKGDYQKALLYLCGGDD
# T6 sequence (P36894 24-152): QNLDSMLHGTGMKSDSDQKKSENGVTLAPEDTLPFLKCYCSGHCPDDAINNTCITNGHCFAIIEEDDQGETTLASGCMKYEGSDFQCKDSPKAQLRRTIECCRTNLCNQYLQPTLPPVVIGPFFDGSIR
# T7 sequence (P02769 25-607 limits assumed): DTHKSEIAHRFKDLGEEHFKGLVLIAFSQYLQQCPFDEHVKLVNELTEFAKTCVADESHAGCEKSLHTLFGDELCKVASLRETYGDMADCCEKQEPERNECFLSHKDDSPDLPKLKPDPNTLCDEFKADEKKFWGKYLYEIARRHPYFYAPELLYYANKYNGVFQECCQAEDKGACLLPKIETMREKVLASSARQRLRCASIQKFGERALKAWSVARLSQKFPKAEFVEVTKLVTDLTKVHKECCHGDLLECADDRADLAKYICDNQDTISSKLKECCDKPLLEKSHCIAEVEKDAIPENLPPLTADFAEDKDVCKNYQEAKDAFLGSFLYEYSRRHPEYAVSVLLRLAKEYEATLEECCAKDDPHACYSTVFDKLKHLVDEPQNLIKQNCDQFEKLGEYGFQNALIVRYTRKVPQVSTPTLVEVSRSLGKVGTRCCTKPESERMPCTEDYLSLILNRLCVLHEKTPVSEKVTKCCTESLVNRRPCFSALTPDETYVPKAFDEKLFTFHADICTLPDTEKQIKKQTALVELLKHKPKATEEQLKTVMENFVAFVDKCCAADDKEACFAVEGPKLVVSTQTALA
molecule,measurement,setting,value
CWELGGGPC,inhibition of CWELGGGPC-phage binding by synthetic peptide,PR-3,specifically inhibited
CKGGRAKDC,inhibition of CKGGRAKDC-displaying phage binding to prohibitin by synthetic peptide,prohibitin,specifically inhibited in a concentration-dependent manner
same,localization and internalization in WAT vasculature,[1],localized to and internalized by cells of mouse WAT vasculature
prohibitin: recombinant glutathione S-transferase (GST)-conjugated prohibitin,binding of prohibitin to ANXA2,ANXA2,binds to ANXA2
same,binding of prohibitin to control protein ANXAS,ANXAS,not to the control protein ANXAS
B1,binding result,His6-ANXA5,no binding
B2,binding result,BMPRIA-Fc,no binding
same,binding result,BSA,no binding
B3,binding result,[2],no binding
